Source: paper PMC10413684, “A bacterial tungsten-containing aldehyde oxidoreductase forms an enzymatic decorated protein nanowire” (Science Advances, 2023)
Several values for one entry are separate records, joined by “and”; a condition that tells them apart may be missing. Equal entries are not always repeated.

T1: AORAa (Aor(AB)nC complex; FAD-containing subunit AorC) (Aromatoleum aromaticum, UniProt Q5P142)
T1 construct: same complex as P1, site in AorC; N-terminal twin-Strep-tag on AorA; expressed in Aromatoleum evansii; modelled Aor(AB)2C; with Aldehyde oxidoreductase, polyferredoxin-like iron-sulfur subunit AorA; Aldehyde oxidoreductase, tungsten-containing catalytic subunit AorB (aldehyde:ferredoxin oxidoreductase)
T1 sequence (Q5P142 1-424): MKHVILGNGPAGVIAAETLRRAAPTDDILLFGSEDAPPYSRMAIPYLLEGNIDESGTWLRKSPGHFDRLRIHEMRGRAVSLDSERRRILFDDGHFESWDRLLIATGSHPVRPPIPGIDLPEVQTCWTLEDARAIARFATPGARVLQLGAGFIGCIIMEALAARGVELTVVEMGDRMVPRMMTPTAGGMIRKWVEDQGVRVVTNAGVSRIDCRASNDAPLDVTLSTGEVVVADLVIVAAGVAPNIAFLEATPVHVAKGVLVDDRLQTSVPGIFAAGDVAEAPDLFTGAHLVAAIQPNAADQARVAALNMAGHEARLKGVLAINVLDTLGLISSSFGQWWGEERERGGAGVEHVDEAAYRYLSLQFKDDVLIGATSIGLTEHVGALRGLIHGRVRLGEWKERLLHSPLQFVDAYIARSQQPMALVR
T1 sequence (Q5P144 1-158 partner): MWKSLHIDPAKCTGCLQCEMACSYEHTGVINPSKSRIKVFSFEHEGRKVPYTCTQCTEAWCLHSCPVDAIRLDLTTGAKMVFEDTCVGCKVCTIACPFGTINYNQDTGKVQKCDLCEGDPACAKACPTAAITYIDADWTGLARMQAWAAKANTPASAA
T1 sequence (Q5P143 1-616 partner): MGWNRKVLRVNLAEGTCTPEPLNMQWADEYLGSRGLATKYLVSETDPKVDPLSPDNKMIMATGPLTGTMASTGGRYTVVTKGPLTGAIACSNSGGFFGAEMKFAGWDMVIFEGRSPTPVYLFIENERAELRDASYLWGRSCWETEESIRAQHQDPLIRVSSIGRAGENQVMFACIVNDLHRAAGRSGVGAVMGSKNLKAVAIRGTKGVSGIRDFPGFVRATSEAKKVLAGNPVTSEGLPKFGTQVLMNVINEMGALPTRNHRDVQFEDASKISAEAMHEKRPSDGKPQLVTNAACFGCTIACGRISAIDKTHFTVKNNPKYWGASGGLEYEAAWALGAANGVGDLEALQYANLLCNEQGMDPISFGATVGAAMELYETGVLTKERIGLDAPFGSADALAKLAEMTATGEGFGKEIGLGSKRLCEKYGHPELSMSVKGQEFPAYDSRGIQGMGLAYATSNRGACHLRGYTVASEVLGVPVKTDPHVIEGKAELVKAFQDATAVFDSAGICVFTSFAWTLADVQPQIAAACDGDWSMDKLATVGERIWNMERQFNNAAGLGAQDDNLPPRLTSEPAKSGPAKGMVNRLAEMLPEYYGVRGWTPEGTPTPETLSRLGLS

T2: AorA of the variant Δhelix-AOR, lacking the AorA residues from 138 to the C terminus (Aromatoleum aromaticum (strain DSM …, UniProt Q5P144))
T2 chain: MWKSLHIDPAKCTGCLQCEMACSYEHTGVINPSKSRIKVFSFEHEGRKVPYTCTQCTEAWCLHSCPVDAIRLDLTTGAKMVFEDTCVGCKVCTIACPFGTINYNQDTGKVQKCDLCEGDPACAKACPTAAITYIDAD

T3: AorB, catalytic tungsten-cofactor-containing subunit of the aldehyde oxidoreductase from Aromatoleum … (Aromatoleum aromaticum, UniProt Q5P143 1-616)
T3 construct: AorB of Aromatoleum aromaticum; benzoate seen in the active site; also called catalytic subunit; source: Aromatoleum evansii, heterologous expression of the AOR plasmid; Superdex 200 gel filtration for the wild-type complex, not for Δhelix-AOR
T3 sequence: T1 sequence (Q5P143 1-616 partner)

B1: AorB, catalytic tungsten-cofactor-containing subunit of the aldehyde oxidoreductase from Aromatoleum aromaticum (AORAa) (protein)
chain: T1 sequence (Q5P143 1-616 partner)
B2: AorA, polyferredoxin-like small subunit of the aldehyde oxidoreductase from Aromatoleum aromaticum (AORAa) (natural protein)
chain: T1 sequence (Q5P144 1-158 partner)
notes: Two to four copies per Aor(AB)nC complex; Carries four Fe4S4 clusters; also called small subunit AorA; electron transfer subunit; source: Aromatoleum evansii, heterologous expression of the AOR plasmid
B3: AorC, FAD-containing NAD-binding subunit of the aldehyde oxidoreductase from Aromatoleum aromaticum (AORAa) (natural protein)
chain: T1 sequence (Q5P142 1-424)
notes: AorC of Aromatoleum aromaticum, Rossmann fold with an extended C-terminal domain of three α helices; A single copy per Aor(AB)nC complex; also called FAD-containing subunit; source: Aromatoleum evansii, heterologous expression of the AOR plasmid; Superdex 200 gel filtration for the wild-type complex, not for Δhelix-AOR

Tests used:
[1] = target: T1, AORAa (Aor(AB)nC complex; FAD-containing subunit AorC); test: cryo-EM structure, […] A; format: binding; conditions: bound in AorC; Arg41 and Glu294 (Gln294 in figure legend)
[2] = target: T4, AORAa (Aor(AB)nC complex; FAD-containing subunit AorC) (Aromatoleum aromaticum, UniProt Q5P142); test: spectrophotometric specific activity; format: biochemical; conditions: hydrogen as electron donor; deletion-helix AOR
T4 construct: same complex as P1, site in AorC; N-terminal twin-Strep-tag on AorA; expressed in Aromatoleum evansii; modelled Aor(AB)2C; with Aldehyde oxidoreductase, polyferredoxin-like iron-sulfur subunit AorA; Aldehyde oxidoreductase, tungsten-containing catalytic subunit AorB (aldehyde:ferredoxin oxidoreductase)
T4 sequence (Q5P144 entry or part of it DEL138-156, one chain of several, further chain): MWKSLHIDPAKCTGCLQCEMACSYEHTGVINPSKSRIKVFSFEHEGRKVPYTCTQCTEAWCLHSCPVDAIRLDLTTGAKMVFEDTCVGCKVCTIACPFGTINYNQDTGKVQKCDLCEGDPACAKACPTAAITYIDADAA

[3] = target: T2, AorA of the variant Δhelix-AOR, lacking …; test: mass photometry of co-purified complex
[4] = target: the molecule itself; test: mass photometry; OneMP mass photometer, 10 mM tris pH 8.0, 100 mM KCl, 0.1 mM EDTA, room temperature, sample diluted 10-fold just before measurement; 50 nM in Fig. 2D, E
[5] = target: B3; test: cryo-EM structure; purified AORAa complex, 0.7 mg/ml, 50 mM Hepes pH 7.5, glycerol below 2%; native and BS3 cross-linked samples prepared; 3.22 Å map of an Aor(AB)3C complex, model of Aor(AB)2C; conditions: both partners purified
[6] = target: T3, AorB, catalytic …; test: as above; conditions: both partners purified
[7] = target: T2, AorA of the variant Δhelix-AOR, lacking …; test: mass photometry of co-purified complex; seen only within the AorABC complex, with AorB present

Molecule: Cc1cc2nc3c(=O)[nH]c(=O)nc-3n(C[C@H](O)[C@H](O)[C@H](O)COP(=O)(O)OP(=O)(O)OC[C@H]3O[C@@H](n4cnc5c(N)ncnc54)[C@H](O)[C@@H]3O)c2cc1C [FAD]
- cryo-EM structure, 3.22 A [1]: The FAD cofactor was well resolved in the electron density

Molecule: NC(=O)c1ccc[n+]([C@@H]2O[C@H](COP(=O)(O)OP(=O)(O)OC[C@H]3O[C@@H](n4cnc5c(N)ncnc54)[C@H](O)[C@@H]3O)[C@@H](O)[C@H]2O)c1 [NAD^+]
- specific activity [2]: NAD^+ reduction with hydrogen as an electron donor

Molecule: B1
- binding result [3]: binds

Molecule: B2
- stoichiometry N [4]: 2 and 3 and 4
- binding result [5]: binds
- binding result [6]: binds

Molecule: B3
- binding result [7]: binds
- binding result [6]: binds
